Like-named read-outs stand apart in the source and are kept apart here.
What was measured:
Test in all cases: fluorescence polarisation
[1] = target: T4 lysozyme mutant L99A, bimane-labelled at Cys151 (T151Bi) (bacteriophage T4) (UniProt P00720)
[2] = target: T4 lysozyme mutant L99A/A130S, bimane-labelled at Cys151 (T151Bi) (bacteriophage T4) (UniProt P00720)
[3] = target: T4 lysozyme mutant D70N, bimane-labelled at Cys151 (T151Bi) (bacteriophage T4) (UniProt P00720)
[4] = target: T4 lysozyme mutant L99A, bimane-labelled at Cys151 (T151Bi) (bacteriophage T4) (UniProt P00720); remark: listed apart in the source
[5] = target: T4 lysozyme mutant L99A/A130S, bimane-labelled at Cys151 (T151Bi) (bacteriophage T4) (UniProt P00720); remark: listed apart in the source
[6] = target: T4 lysozyme mutant L99A, bimane-labelled at Cys151 (T151Bi) (bacteriophage T4) (UniProt P00720); remark: listed apart in the source
[7] = target: T4 lysozyme mutant L99A, bimane-labelled at Cys151 (T151Bi) (bacteriophage T4) (UniProt P00720); remark: listed apart in the source
[8] = target: T4 lysozyme mutant L99A/A130S, bimane-labelled at Cys151 (T151Bi) (bacteriophage T4) (UniProt P00720); remark: listed apart in the source

Row | Substance | Kd [1] [µM] | Kd [2] [µM] | Kd [3] [µM] | Kd [4] [nM] | Kd [5] [nM] | stoichiometry N [5] | Kd [6] [nM] | stoichiometry N [4] | Kd [7] [nM] | stoichiometry N [7] | stoichiometry N [6] | Kd [8] [µM]
1 | triply phosphorylated analog (S19D/S45D/S59D) of human αB-crystallin (from UniProt P02511 1-175) (natural protein) | – | – | – | – | – | – | 71 | – | – | – | – | –
2 | human αA-crystallin (from UniProt P02489 1-173) (natural protein) | – | – | 14.7 | 2430 | 2370 | – | 1900 | – | – | – | – | –
3 | zebrafish αBb-crystallin (from UniProt Q6DG35 1-165) (natural protein) | – | 4.94 | 4.85 | 1340 | 120 | 0.33 | – | – | – | – | – | 29
4 | human αB-crystallin (from UniProt P02511 1-175) (natural protein) | – | – | – | – | – | – | 28000 | – | – | – | – | –

Results, then the substance that gave them:

Row | Kd [1] [µM] | Kd [2] [µM] | Kd [3] [µM] | Kd [4] [nM] | Kd [5] [nM] | stoichiometry N [5] | Kd [6] [nM] | stoichiometry N [4] | Kd [7] [nM] | stoichiometry N [7] | stoichiometry N [6] | Kd [8] [µM] | Substance
5 | 50.7 | 20.9 | 88.9 | 8160 | 6200 | 1.25 | 8320 | – | – | – | – | – | zebrafish αA-crystallin (from UniProt Q8UUZ6 1-173) (natural protein)
6 | – | – | 6.82 | 17 | 64 | 0.32 | – | 0.33 | – | – | – | – | rat αA^ins-crystallin (from UniProt P24623 1-196) (natural protein)
7 | 0.92 | 0.21 | 1.87 | 58 | 63 | 0.65 | 68 | 0.47 | 12 | 0.64 | 0.65 | – | zebrafish αBa-crystallin, population αBa-S (from UniProt Q9PUR2 1-168) (natural protein)
8 | – | – | – | – | – | – | 38 | – | – | – | – | – | triply phosphorylated analog (S15D/S78D/S82D) of human Hsp27 (from UniProt P04792 1-205) (natural protein)

— article PMC5240591
